The text below walks through data of a protein production outcome set (Wang et al. 2014).
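Also: failed if final PepcDB status was selected cloned or expressed and not failed if soluble or beyond.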

This series can be described thus: label from the status in PepcDB records.
Regarding “MLETDLEARMQILRESGFQESQGDDDTFAQRAEWFYQGRPLLLSLCLDLYNGYVTLLGRSSHQTRLKPTTSLPNQLLQDDDDCISDIDSVSEVSSEVESTLSFQQMKDPTAVSEKVDELVSQLVTASLDKEILKHELLHKDQQFHEASKTIELLKKFVMLLEMEKEVAVEENANLGYKLTSLLEENRELATEALFMKNEAVGLARCVLKMRDDHFHKVCILQNRIYSLQASRNSEPVSDKVSYGCFGLDKHKTKKKKENKTEEKKPGFKWLKKLNTINLFTKCSLNPSAAAPSCCTFDLPY”, the protein production entry is on record as “failed”.

For the sequence “MDEQSVESIAEVFRCFICMEKLRDARLCPHCSKLCCFSCIRRWLTEQRAQCPHCRAPLQLRELVNCRWAEEVTQQLDTLQLCSLTKHEENEKDKCENHHEKLSVFCWTCKKCICHQCALWGGMHGGHTFKPL”, the protein production entry is recorded as “failed”. In the case of “MKIIFSASPANRAAAYALRQAVFVEERGISADVEFDVKDTDQCEYAVLYLQPDLPITTLRLEPQADHVMRFGRVCTRKAYRGHGWGRQLLTAAEEWATQRGFTHGEIHGELTAQRFYELCGYRVTAGPYDEDGAPVVIMHKQ”, the protein production entry is listed as “failed”. As for “MQSSNDPPRGAGGGPECAADHRAVPGRTYVETGQGAGYDGPRYDDPWYDALASGWGESAGPAAPGPTVPPMRRSAPAEPPRAAADVYLEVQRSAAFQEVRSRYRRFVVPAVAGFFLWYVAYVVAATSAPALMARPVAGAVNVAMVAGLGQFLTTFLLTWAYARHARLRRDRAALELRWDTQELTRGVRGDAS”, the protein production result is recorded as “failed”. “MDLLRGSDYVGDGAWFRAEALQEIGAFAEAPDADSYDALLRIHDRYGAMVIGHIPDMLLHAPSRGTADGSGQRAALDAHLARNGGGADIEAGPAAGTRRIRYPAPEQARLSIIVADAGDGFHLSPCIDALQASLGGCACEILAIAADGEPGDAAKLLRCDPGLGLAARFQLGAEAASGDFLLFIDSRVELAQPDGLQALLGLAARPEVGAAAPRLLRPDGEALWRGPLLIGAGEGAAALFCDAGASEAGHLNRQAVEHNPGALRLECLLMAKAFYQQIGGMDASLPTLLDTAVDLGLRIRAAGRLPVWTPFVSARRHGALDVSEPPETCDADALSLRWNGWLGQDPAHNRHLSLAADKAFQIEDVYSAQWDASFHERTRVLALPAESKATEARMASPFRILQEDCQCQLTQIPAGQRLPSAGEIERMAPDALLMSARFDSASLAWLRGYRQRRPDVLAVLMLDKLDFGAGTTHRYGHSLLQAMAGMADRVIVPTESLYRMALAFADDVRLVPDGLEEARWFELQSLRRVGKKPRVGWVGSAAEAPDLLMLSGIILATAAELDWIVLGDCPEVLKPCLAEYHAFDLSSDDYPTRLASLSLDMAVMPKAATLANETGSPLRMFEFGALGVPVICSAVGELGLSPAPVARVENDVSSWGEALRELARDAAAAAQAGDGLRAWVRENCGLKRHLPLWQQAISR”: the protein production entry is given as “failed”. For “MLQIADYIAENYRGKVVEVGIGRFTAVAELLARRGFEVFATDVVERRAPEGCRFYVDDVTKPNLKIYEGASLIYSLRPPPELFSAIVEVSRKVGADCLIKPLYGDYMEARIVNYKGAQFYLIRRENYD”, the protein production entry is listed as “failed”. As to “MYCDHFGFSEHPFALTPNPAFLFLSSRHQEAFAHLLYGIDTRAGFIELSGEVGTGKTTVIRTFLNQLDPETHRTALVFNPTVSPLGLLQGIIREFGLPGTSTEKSELLETLNRFLLDENRAGHTVVLVIDEAQNLSPEVLEQIRLISNLETERDKLIQIVLVGQPELRHLLARQELRQLDQRITVRYHLEPMGLDDTKNYIRHRIRIAAGGREPVIFSAGAVKKIFGFSGGLPRLINAACDRALLLAYTTEAREVSPAMAAAAIADVATEARPPSPSRRFAVAAALILVAALGAGTFAVTRKGGESLPSASPPPTEPAASGEQPLKRTAALAGLAAVPEKDNLSAAVNTILRSWQAPPVASSPSPADLRSLARERGLTVTELSGTLNDLARLDTPALLHITLPQGGKRLVALTSLDKGHIGIDPPIAGHSTLTGGELSTLWSGRASVIWKNFHGIPSRLKPGGRSKAVGQLQELLKGAGYYAGRISGTYDTVTQEAIRSFQTAEGLDADGRTGEKTLLLLYRRAGGFFPPGLTQGKTAARTEAGDRSRGKVAQTRSNGEQSRLEHHHHHH”, the protein production result was “failed”. Consider “MKLIAVLNLLNQLSNKNSLEEYLNGVIDFLSGWTGCENIGIRVLREAGLAPYVVHRGFDKDFIASESCISVEGDECVCLRVLKQQFKSEDQDHISAAGTYYAPNFYRYVEELREDQLLNFRGLCAHKQFKSLAVIPLLHQGKVVGAIHIADIKDGVFSEEDIHFIETIRPLVAEAIYRHNLEKALEHHHHHH”, for which the protein production result was “failed”. Consider “AIAKLPISTISPIHYMKSVVSSRETRNESNKSRRTFASTEWNKIIRETLYLETVYIPVDATSHSPDIIFKLQSPVEPKVLTVGVACKGRWKSEGIGWSDIIDEAKKFLDPVYDQVLSSAMDYHHCMLIIVSTKLSLNVSNELGNQSRCYSSGMFIGGDSFKVPDNCELVILCERDVQMLIDKEILNGLERAFCVSHNPTFWDFGLDLLDRIRNSFLSWQ”, for which the protein production result is listed as “failed”. In the case of “MKIRNDGPALAGWNVAWEMPDGQEITNSWNGRFVQTGAHVDVGNLDWNKDIPAGSNIEFGFNGSHTGRNRTPASLSVNGVKCTMAVAAPPPSPRPAACEATYQISDQWNTGFTANVRIRNDGDPLAGWKVVWDMPDGQRVTNSWNGRFTQSGSHVEVGHLDWNRDIATGSNIEFGFNGSHAGANRAPSSLSLNGVACALVTVAPSPTPAPTATPSPIPTPTPSPAPTASPSPAPTPTPAPTSSPSPTPAPTGPCQADYQVTAQWNDGFTANVKVRNNGTALDGWTVAWTMPSGQTVTGMWNGQYVQTGPQVAVTPADWNRQIASGASIEFGFNGSHSGSNAVPGVLTLNGAACATTTGGGTPTPTPVPVAPGAPAGLSATVADNAVVNLVWTAADAFAQGFRIERRTAAGVDWALVAETAAGVPSFGDGTVAMGNDYEYRVYAFNAVGNSPPATASASLPTLLKYGESQYQKQGCASCHGKDGKGGFTNKPLVHFTADQLATLTEIIRVRMPPSKPANCVSNCAAGTAKYIIEVLAAAASGGGGGGGNACAGSPPPGGRALRLLTRQEYQNTVNDLLGLSENLVHLLPEENRVDGFDNNVATNLVTSIRLEAFLTQAEALAAKAVQQNWNALLPCTQQDAACARRFVEAFGKRAYRRPLTPEEADAYAALFGQGSFREGVEATITHMLVSPNFLYRSELGEVQADGTYKLTPYETASALSYLFLGSLPDGELVSAADQNLLDTPDQRIAHASRLLSLPRSRNRVGHFVGQWLLGTSPYTLPEKDQAVYPRYDAAVRSAMSEELIGFFDHVAFESTQSFPELFTANYVVVDDTLADYYGLGRPGGSGFAPVTVSDGTRTGILTLGAVLSRYANSNESHPFKRGGFLYKRLLCRDLPLPANAGFIQAPQPDPNATTRQRFEFHSKSNTSCYGCHQYLDGPGFGFENYDGAGIFRASENGQAIDASGVLRGLETFTPTEELSFTDLPDLSRKIAASPTAAQCAARQYYRFATGRREASSDSCALDSFLQTYSANGHNLQTMLLGIVNAPGFTVRRADQ”, the protein production entry was “failed”. On to “MTYCVAMRLDAGLVFLSDSRTNAGVDAISTFRKMTVFEREGDRVMVLLTAGNLAISQAVRQVLTEARDKARSLWTARDMFEATTIVGEAVREVYDRDAAALAKAKIDFNVSIIFGGQIGGERPRLFNVYAAGNFIEATPENCYFQIGEAKYGKPIIDRLIRASLPLDEAAKCALISMDSTLKSNISVGLPLDLLVYEADSLRVTRFVAIDEENPYFAMIRSTWGKRLRQVFAEIEDPDWQTGTHPAHPLRRAGHPTAEVEPVRIAPPAAPPAAEGAAVPQRAPGPAFGQGAAAQRVAGGSHEPH”, for which the protein production entry is reported as “failed”. Take “NYDPFVRHSVTVKADRKTAFKTFLEGFPEWWPNNFRTTKVGAPLGVDKKGGRWYEIDEQGEEHTFGLIRKVDEPDTLVIGWRLNGFGRIDPDNSSEFTVTFVADGQKKTRVDVEHTHFDRMGTKHAKRVRNGMDKGWPTILQSFQDKIDEEGAKK”: the protein production result is listed as “not failed”. For the sequence “MASYSEDQCSWRGSGLSQAVKNVEQVWLRCAEGSVEWLYPAGALRLTLSPRLPWSAMGPGESSRSPVSVCVKPDPHWGGAQLYLERDGVLELLVGDETSTTPGPAHVRCFSALPGERPALFLQATPHRDISRRIAAFRYELRGDWTAQPAVNTDPVSSEGACRPCNNTEILMAVCTSDFVVRGNIRSVGTDSNLNAAVIKVSATRVYRQKFALFPESGRLTRSGEIRTPLQCGVRPGAGSFLFTGRVHFGEAWLGCAPRYKDFLKAYEQAKQSLMIPCTLVND”, the protein production entry is on record as “failed”. Next, “MTEKKIDFKKEEKKFYAPKRKPERIFVPEMNFLMVDGKGDPDGEEYQKAVQSLYAIAYTIKMSKMGETRLDGYSDFVVPPLEGFWWSEGKFDLKDRDAWLWTSILRQPDFVTEEVLEWAKEVARKKKPDV”: “failed”; “EPEQVIRKYTEELKVAPEEDCIICMEKLAVASGYSDMTDSKALGPMVVGRLTKCSHAFHLLCLLAMYCNGNKDGSLQCPSCKTIYGEKTGTQPWGKMEVFR”: “not failed”.

As to “MVVMIKLRDELGTATTDSAQKILLLGSGELGKEIAIEAQRLGVEVVAVDRYANAPAMQVAHRSYVGNMMDKDFLWSVVEREKPDAIIPEIEAINLDALFEFEKDGYFVVPNARATWIAMHRERLRETLVKEAKVPTSRYMYATTLDELYEACEKIGYPCHTKAIMSSSGKGSYFVKGPEDIPKAWEEAKTKARGSAEKIIVEEHIDFDVEVTELAVRHFDENGEIVTTFPKPVGHYQIDGDYHASWQPAEISEKAEREVYRIAKRITDVLGGLGIFGVEMFVKGDKVWANEVSPRPHDTGMVTLASHPPGFSEFALHLRAVLGLPIPGEWVDGYRLFPMLIPAATHVIKAKVSGYSPRFRGLVKALSVPNATVRLFGKPEAYVGRRLGIALAWDKDVEVAKRKAEMVAHMIELRTRSSDWHDQNYEKRKHLLR”, the protein production result is given as “not failed”. As for “MTMLDAAAPPDLAGLFAPAQRRSRTVDWQEPGPVARAAMAMSGLEVMQAIRDGRLPPPPLARLIGFKMAEVHRGRIVMQLDPDQSLENTAGLLHGAIAAALLDTAMGCAISTQQPAGQGSVTMDLKLSYLRPLSVRSGTIVAEGRVVKLGRQSSYTEGFVYDGAGKLAVHATATFAMLGAGPVAAPHPHES”, the protein production entry is on record as “failed”.

Regarding “MSERVKVAILGSGNIGTDLMYKLLKNPGHMELVAVVGIDPKSEGLARARALGLEASHEGIAYILERPEIKIVFDATSAKAHVRHAKLLREAGKIAIDLTPAARGPYVVPPVNLKEHLDKDNVNLITCGGQATIPLVYAVHRVAPVLYAEMVSTVASRSAGPGTRQNIDEFTFTTARGLEAIGGAKKGKAIIILNPAEPPILMTNTVRCIPEDEGFDREAVVASVRAMEREVQAYVPGYRLKADPVFERLPTPWGERTVVSMLLEVEGAGDYLPKYAGNLDIMTASARRVGEVFAQHLLGKPVEEVVA”, the protein production result is recorded as “not failed”. “MDVPTPPPAEIYLAIQLPNPLSILVNYLPVSVTPIETLRGLVSTLEPTAINMDEFMTWPDFVLPETPFRTYFTLLLERGARPAIYLEGVRLACNFITVAHGLTMLSSISPIDAYACFSHGLFLTATGNGREVEAVNATFWDLVPSFEAANTVGELVMYHISRLHAEGTRLWNRSWRFVVSPDCLGRCSYGACCRNCFFYWYARELCIFY”: the protein production result is listed as “failed”.
